± gives the uncertainty stated by the source.
Assay: self-splicing fitness, log relative to wild type (ln ratio); higher = more splicing; Tetrahymena group I intron in knt gene, E. coli kanamycin selection, DiMSum; sequences stand for … in CUCUCU…GGAGGGAAAAGUUAUCAGGCAUGCACCUGGUAGCUAGUCUUUAAACCAAUAGAUUGCAUCGGUUUAAAAGGCAAGACCGUCAAAUUGCGGGAAAGGGGUCAACAGCCGUUCAGUACCAAGUCUCAGGGGAAACUUUGAGAUGGCCUUGCAAAGGGUAUGGUAAUAAGCUGACGGACAUGGUCCUAACCACGCAGCCAAGUCCUAAGUCAACAGAUCUUCUGUUGAUAUGGAUGCAGUUCACAGACUAAAUGUCGGUCGGGGAAGAUGUAUUCUUCUCAUAAGAUAUAGUCGGACCUCUCCUUAAUGGGAGCUAGCGGAUGAAGUGAUGCAACACUGGAGCCGCUGGGAACUAAUUUGUAUGCGAAAGUAUAUUGAUUAGUUUUGGAGUACUCGUGGUCG
Method in brief: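 Pooled colonies went to amplicon sequencing on an Illumina HiSeq 2500 after six replicate transformations. The plates were LB agar with 100 μg/mL carbenicillin, 50 μM IPTG and 0.2% rhamnose, with or without 25 μg/mL kanamycin, incubated overnight at 37°C or 30°C. The E. coli BL21(DE3) library had all eight P1ex-region intron nucleotides randomised, the intron placed in the knt kanamycin-resistance gene on pET-22b(+). DiMSum fitness is the error-weighted combination of replicate fold changes, kanamycin against none, normalised to wild type.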

| Sequence | self-splicing fitness (ln) (30 °C) | self-splicing fitness (ln) (37 °C) |
| --- | --- | --- |
| UCGUAGCAAUAUUACGCGCA | -0.601 ± 0.11 | -0.0623 ± 0.15 |
| UCGUAGCAAUAUUACGCUAG | -2.95 ± 0.26 | -2.32 ± 0.29 |
| UCGUAGCAAUAUUACGCUCU | -3.62 ± 0.32 | -0.606 ± 0.18 |
| UCGUAGCAAUAUUACGGACG | -2.58 ± 0.24 | -1.68 ± 0.21 |
| UCGUAGCAAUAUUACGGAGC | -2.59 ± 0.18 | -2.35 ± 0.39 |
| UCGUAGCAAUAUUACGGGUG | -1.66 ± 0.11 | -2.66 ± 0.14 |
| UCGUAGCAAUAUUACGGUAA | -2.67 ± 0.35 | 0.253 ± 0.19 |
| UCGUAGCAAUAUUACGUCCC | -2.74 ± 0.3 | – |
| UCGUAGCAAUAUUACGUGAA | -2.73 ± 0.16 | -1.8 ± 0.17 |
| UCGUAGCAAUAUUACGUGAU | -2.2 ± 0.2 | -1.48 ± 0.46 |
| UCGUAGCAAUAUUACGUGGU | -3.45 ± 0.4 | -2.67 ± 0.48 |
| UCGUAGCAAUAUUACGUGUU | -3.06 ± 0.21 | -2.46 ± 0.19 |
| UCUAAGCAAUAUUACGACCU | -3.7 ± 0.35 | -1.92 ± 0.24 |
| UCUAAGCAAUAUUACGACGU | -0.257 ± 0.087 | -0.334 ± 0.11 |
| UCUAAGCAAUAUUACGAGAC | -1.53 ± 0.12 | -2.52 ± 0.2 |
| UCUAAGCAAUAUUACGAUCC | -3.87 ± 0.39 | -2.5 ± 0.36 |
| UCUAAGCAAUAUUACGCUAG | -2.73 ± 0.16 | -2.89 ± 0.26 |
| UCUAAGCAAUAUUACGCUCU | -3.32 ± 0.47 | -2.58 ± 0.41 |
| UCUAAGCAAUAUUACGGAAU | -4.16 ± 0.46 | -1.64 ± 0.33 |
| UCUAAGCAAUAUUACGGACC | -1.71 ± 0.24 | -1.99 ± 0.32 |
| UCUAAGCAAUAUUACGGAGU | -2.04 ± 0.13 | -0.505 ± 0.14 |
| UCUAAGCAAUAUUACGGCCU | -3.76 ± 0.41 | – |
| UCUAAGCAAUAUUACGGUAC | -3.5 ± 0.3 | -2.78 ± 0.4 |
| UCUAAGCAAUAUUACGGUAU | -4.13 ± 0.27 | -1.56 ± 0.21 |

| Sequence | self-splicing fitness (ln) (30 °C) | self-splicing fitness (ln) (37 °C) |
| --- | --- | --- |
| UCUAAGCAAUAUUACGGUUA | -3.9 ± 0.42 | -1.76 ± 0.17 |
| UCUAAGCAAUAUUACGUAUA | -2.55 ± 0.17 | -1.45 ± 0.12 |
| UCUAAGCAAUAUUACGUAUU | -3.09 ± 0.2 | -2.16 ± 0.2 |
| UCUAAGCAAUAUUACGUCAG | -1.23 ± 0.073 | -0.611 ± 0.08 |
| UCUAAGCAAUAUUACGUCCU | -2.72 ± 0.28 | -0.964 ± 0.21 |
| UCUAAGCAAUAUUACGUGAG | -1.32 ± 0.074 | 0.269 ± 0.096 |
| UCUAAGCAAUAUUACGUGCU | -4.04 ± 0.34 | -2.37 ± 0.2 |
| UCUAAGCAAUAUUACGUUCG | -1.38 ± 0.12 | -1.12 ± 0.12 |
| UCUCAGCAAUAUUACGAAAA | -1.84 ± 0.26 | -2.59 ± 0.26 |
| UCUCAGCAAUAUUACGAACG | -1.88 ± 0.12 | -0.666 ± 0.14 |
| UCUCAGCAAUAUUACGAAGG | -2.79 ± 0.19 | -0.314 ± 0.14 |
| UCUCAGCAAUAUUACGAGAC | -2.81 ± 0.15 | -2.71 ± 0.21 |
| UCUCAGCAAUAUUACGCAAG | -4.47 ± 0.39 | -2.02 ± 0.2 |
| UCUCAGCAAUAUUACGCGUA | -1.04 ± 0.1 | -0.966 ± 0.1 |
| UCUCAGCAAUAUUACGCUCC | -1.02 ± 0.39 | – |
| UCUCAGCAAUAUUACGGCCU | – | -1.67 ± 0.34 |
| UCUCAGCAAUAUUACGGGAA | -2.28 ± 0.17 | -0.762 ± 0.11 |
| UCUCAGCAAUAUUACGGGAG | -2.79 ± 0.2 | -1.4 ± 0.16 |
| UCUCAGCAAUAUUACGGGAU | -4.25 ± 0.27 | -2.87 ± 0.19 |
| UCUCAGCAAUAUUACGGGCA | -0.117 ± 0.073 | 0.575 ± 0.09 |
| UCUCAGCAAUAUUACGGGGC | -3.03 ± 0.23 | -3.85 ± 0.37 |
| UCUCAGCAAUAUUACGGGUU | -2.06 ± 0.081 | -1.27 ± 0.1 |
| UCUCAGCAAUAUUACGGUUU | -1.91 ± 0.082 | -0.695 ± 0.081 |
| UCUCAGCAAUAUUACGUCCG | -2.5 ± 0.28 | -2.26 ± 0.41 |

Reference: the supplement of paper PMC7877785
